From article PMC4503265 (The Journal of biological chemistry, 2008)

Experiments:
[1] = biological target: the molecule itself; test: SDS-resistant band in nonreducing SDS-PAGE with Western blot
cross-linking [2] = biological target: the molecule itself; test: cross-linking
cross-linking [3] = biological target: the molecule itself; test: cross-linking; remark: listed apart in the source
pull-down = biological target: the molecule itself; test: pull-down

Protein | stoichiometry N (cross-linking [3]) | other results
Myc-tagged wild-type glycine transporter 2 (Myc-GlyT2^WT) (natural protein, mouse, UniProt Q761V0 1-799, looked up) MDCSAPKEMNKQPANILEAAVPGHRDSPRAPRTSPEQDLPAEAPAATVQPPRVPRSASTGAQTFQSADARACEAQQSGVGFCNLSSPRAQATSAALRDLSEGHSAQANPPSGPAGAGNALHCKIPALRGPEEDANVSVGKGTLEHNNTPAVGWVNMSQSTVVLGTDGIASVLPGSVATTTIPEDEQGDENKARGNWSSKLDFILSMVGYAVGLGNVWRFPYLAFQNGGGAFLIPYLMMLALAGLPIFFLEVSLGQFASQGPVSVWKAIPALQGCGIAMLIISVLIAIYYNVIICYTLFYLFASFVSVLPWGSCNNPWNTPECKDKTKLLLDSCVIGDHPKIQIKNSTFCMTAYPNLTMVNFTSQTNKTFVSGSEEYFKYFVLKISAGIEYPGEIRWPLAFCLFLAWVIVYASLAKGIKSSGKVVYFTATFPYVVLVILLIRGVTLPGAGAGIWYFITPKWEKLTDATVWKDAATQIFFSLSAAWGGLITLSSYNKFHNNCYRDTLIVTCTNSATSIFAGFVIFSVIGFMANERKVNIENVADQGPGIAFVVYPEALTRLPLSPFWAIIFFLMLLTLGLDTMFATIETIVTSISDEFPKYLRTHKPVFTLGCCICFFIMGFPMITQGGIYMFQLVDTYAASYALVIIAIFELVGISYVYGLQRFCEDIEMMIGFKPNIFWKVCWAFVTPTILTFILCFSFYQWEPMTYGSYRYPNWSMVLGWLMLACSVIWIPIMFVIKMYLAPGRFIERLKLVCSPQPDWGPFLAQHRGERYKNMIDPLGTSSLGLKLPVKDLELGTQC |  | stoichiometry N [1]: 2
His-GlyT2^T464C expressed in Xenopus laevis oocytes (natural protein, mouse, UniProt Q761V0 1-799, looked up) MDCSAPKEMNKQPANILEAAVPGHRDSPRAPRTSPEQDLPAEAPAATVQPPRVPRSASTGAQTFQSADARACEAQQSGVGFCNLSSPRAQATSAALRDLSEGHSAQANPPSGPAGAGNALHCKIPALRGPEEDANVSVGKGTLEHNNTPAVGWVNMSQSTVVLGTDGIASVLPGSVATTTIPEDEQGDENKARGNWSSKLDFILSMVGYAVGLGNVWRFPYLAFQNGGGAFLIPYLMMLALAGLPIFFLEVSLGQFASQGPVSVWKAIPALQGCGIAMLIISVLIAIYYNVIICYTLFYLFASFVSVLPWGSCNNPWNTPECKDKTKLLLDSCVIGDHPKIQIKNSTFCMTAYPNLTMVNFTSQTNKTFVSGSEEYFKYFVLKISAGIEYPGEIRWPLAFCLFLAWVIVYASLAKGIKSSGKVVYFTATFPYVVLVILLIRGVTLPGAGAGIWYFITPKWEKLCDATVWKDAATQIFFSLSAAWGGLITLSSYNKFHNNCYRDTLIVTCTNSATSIFAGFVIFSVIGFMANERKVNIENVADQGPGIAFVVYPEALTRLPLSPFWAIIFFLMLLTLGLDTMFATIETIVTSISDEFPKYLRTHKPVFTLGCCICFFIMGFPMITQGGIYMFQLVDTYAASYALVIIAIFELVGISYVYGLQRFCEDIEMMIGFKPNIFWKVCWAFVTPTILTFILCFSFYQWEPMTYGSYRYPNWSMVLGWLMLACSVIWIPIMFVIKMYLAPGRFIERLKLVCSPQPDWGPFLAQHRGERYKNMIDPLGTSSLGLKLPVKDLELGTQC |  | stoichiometry N (cross-linking [2]): 2
GlyT2^T464C (no tag named) (natural protein, mouse, UniProt Q761V0 1-799, looked up) MDCSAPKEMNKQPANILEAAVPGHRDSPRAPRTSPEQDLPAEAPAATVQPPRVPRSASTGAQTFQSADARACEAQQSGVGFCNLSSPRAQATSAALRDLSEGHSAQANPPSGPAGAGNALHCKIPALRGPEEDANVSVGKGTLEHNNTPAVGWVNMSQSTVVLGTDGIASVLPGSVATTTIPEDEQGDENKARGNWSSKLDFILSMVGYAVGLGNVWRFPYLAFQNGGGAFLIPYLMMLALAGLPIFFLEVSLGQFASQGPVSVWKAIPALQGCGIAMLIISVLIAIYYNVIICYTLFYLFASFVSVLPWGSCNNPWNTPECKDKTKLLLDSCVIGDHPKIQIKNSTFCMTAYPNLTMVNFTSQTNKTFVSGSEEYFKYFVLKISAGIEYPGEIRWPLAFCLFLAWVIVYASLAKGIKSSGKVVYFTATFPYVVLVILLIRGVTLPGAGAGIWYFITPKWEKLCDATVWKDAATQIFFSLSAAWGGLITLSSYNKFHNNCYRDTLIVTCTNSATSIFAGFVIFSVIGFMANERKVNIENVADQGPGIAFVVYPEALTRLPLSPFWAIIFFLMLLTLGLDTMFATIETIVTSISDEFPKYLRTHKPVFTLGCCICFFIMGFPMITQGGIYMFQLVDTYAASYALVIIAIFELVGISYVYGLQRFCEDIEMMIGFKPNIFWKVCWAFVTPTILTFILCFSFYQWEPMTYGSYRYPNWSMVLGWLMLACSVIWIPIMFVIKMYLAPGRFIERLKLVCSPQPDWGPFLAQHRGERYKNMIDPLGTSSLGLKLPVKDLELGTQC | 2 | 
His- or Myc-tagged GlyT2^T464C (natural protein, mouse, UniProt Q761V0 1-799, looked up) MDCSAPKEMNKQPANILEAAVPGHRDSPRAPRTSPEQDLPAEAPAATVQPPRVPRSASTGAQTFQSADARACEAQQSGVGFCNLSSPRAQATSAALRDLSEGHSAQANPPSGPAGAGNALHCKIPALRGPEEDANVSVGKGTLEHNNTPAVGWVNMSQSTVVLGTDGIASVLPGSVATTTIPEDEQGDENKARGNWSSKLDFILSMVGYAVGLGNVWRFPYLAFQNGGGAFLIPYLMMLALAGLPIFFLEVSLGQFASQGPVSVWKAIPALQGCGIAMLIISVLIAIYYNVIICYTLFYLFASFVSVLPWGSCNNPWNTPECKDKTKLLLDSCVIGDHPKIQIKNSTFCMTAYPNLTMVNFTSQTNKTFVSGSEEYFKYFVLKISAGIEYPGEIRWPLAFCLFLAWVIVYASLAKGIKSSGKVVYFTATFPYVVLVILLIRGVTLPGAGAGIWYFITPKWEKLCDATVWKDAATQIFFSLSAAWGGLITLSSYNKFHNNCYRDTLIVTCTNSATSIFAGFVIFSVIGFMANERKVNIENVADQGPGIAFVVYPEALTRLPLSPFWAIIFFLMLLTLGLDTMFATIETIVTSISDEFPKYLRTHKPVFTLGCCICFFIMGFPMITQGGIYMFQLVDTYAASYALVIIAIFELVGISYVYGLQRFCEDIEMMIGFKPNIFWKVCWAFVTPTILTFILCFSFYQWEPMTYGSYRYPNWSMVLGWLMLACSVIWIPIMFVIKMYLAPGRFIERLKLVCSPQPDWGPFLAQHRGERYKNMIDPLGTSSLGLKLPVKDLELGTQC |  | stoichiometry N (pull-down): 2
wild-type dopamine transporter (DAT^WT), no tag named (natural protein, human, UniProt Q01959 1-620, looked up) MSKSKCSVGLMSSVVAPAKEPNAVGPKEVELILVKEQNGVQLTSSTLTNPRQSPVEAQDRETWGKKIDFLLSVIGFAVDLANVWRFPYLCYKNGGGAFLVPYLLFMVIAGMPLFYMELALGQFNREGAAGVWKICPILKGVGFTVILISLYVGFFYNVIIAWALHYLFSSFTTELPWIHCNNSWNSPNCSDAHPGDSSGDSSGLNDTFGTTPAAEYFERGVLHLHQSHGIDDLGPPRWQLTACLVLVIVLLYFSLWKGVKTSGKVVWITATMPYVVLTALLLRGVTLPGAIDGIRAYLSVDFYRLCEASVWIDAATQVCFSLGVGFGVLIAFSSYNKFTNNCYRDAIVTTSINSLTSFSSGFVVFSFLGYMAQKHSVPIGDVAKDGPGLIFIIYPEAIATLPLSSAWAVVFFIMLLTLGIDSAMGGMESVITGLIDEFQLLHRHRELFTLFIVLATFLLSLFCVTNGGIYVFTLLDHFAAGTSILFGVLIEAIGVAWFYGVGQFSDDIQQMTGQRPSLYWRLCWKLVSPCFLLFVVVVSIVTFRPPHYGAYIFPDWANALGWVIATSSMAMVPIYAAYKFCSLPGSFREKLAYAIAPEKDRELVDRGEVRQFTLRHWLKV | 2 | 
His-tagged wild-type dopamine transporter (His-DAT^WT) (natural protein, human, UniProt Q01959 1-620, looked up) MSKSKCSVGLMSSVVAPAKEPNAVGPKEVELILVKEQNGVQLTSSTLTNPRQSPVEAQDRETWGKKIDFLLSVIGFAVDLANVWRFPYLCYKNGGGAFLVPYLLFMVIAGMPLFYMELALGQFNREGAAGVWKICPILKGVGFTVILISLYVGFFYNVIIAWALHYLFSSFTTELPWIHCNNSWNSPNCSDAHPGDSSGDSSGLNDTFGTTPAAEYFERGVLHLHQSHGIDDLGPPRWQLTACLVLVIVLLYFSLWKGVKTSGKVVWITATMPYVVLTALLLRGVTLPGAIDGIRAYLSVDFYRLCEASVWIDAATQVCFSLGVGFGVLIAFSSYNKFTNNCYRDAIVTTSINSLTSFSSGFVVFSFLGYMAQKHSVPIGDVAKDGPGLIFIIYPEAIATLPLSSAWAVVFFIMLLTLGIDSAMGGMESVITGLIDEFQLLHRHRELFTLFIVLATFLLSLFCVTNGGIYVFTLLDHFAAGTSILFGVLIEAIGVAWFYGVGQFSDDIQQMTGQRPSLYWRLCWKLVSPCFLLFVVVVSIVTFRPPHYGAYIFPDWANALGWVIATSSMAMVPIYAAYKFCSLPGSFREKLAYAIAPEKDRELVDRGEVRQFTLRHWLKV | 2 | 
